The source of these data is US20240287172A1 (SCIRHOM, published 2024).

First the molecules themselves.
T1: hiR2-FL-R543Q-T7 (human, UniProt Q6PJF5 1-856)
T1 sequence: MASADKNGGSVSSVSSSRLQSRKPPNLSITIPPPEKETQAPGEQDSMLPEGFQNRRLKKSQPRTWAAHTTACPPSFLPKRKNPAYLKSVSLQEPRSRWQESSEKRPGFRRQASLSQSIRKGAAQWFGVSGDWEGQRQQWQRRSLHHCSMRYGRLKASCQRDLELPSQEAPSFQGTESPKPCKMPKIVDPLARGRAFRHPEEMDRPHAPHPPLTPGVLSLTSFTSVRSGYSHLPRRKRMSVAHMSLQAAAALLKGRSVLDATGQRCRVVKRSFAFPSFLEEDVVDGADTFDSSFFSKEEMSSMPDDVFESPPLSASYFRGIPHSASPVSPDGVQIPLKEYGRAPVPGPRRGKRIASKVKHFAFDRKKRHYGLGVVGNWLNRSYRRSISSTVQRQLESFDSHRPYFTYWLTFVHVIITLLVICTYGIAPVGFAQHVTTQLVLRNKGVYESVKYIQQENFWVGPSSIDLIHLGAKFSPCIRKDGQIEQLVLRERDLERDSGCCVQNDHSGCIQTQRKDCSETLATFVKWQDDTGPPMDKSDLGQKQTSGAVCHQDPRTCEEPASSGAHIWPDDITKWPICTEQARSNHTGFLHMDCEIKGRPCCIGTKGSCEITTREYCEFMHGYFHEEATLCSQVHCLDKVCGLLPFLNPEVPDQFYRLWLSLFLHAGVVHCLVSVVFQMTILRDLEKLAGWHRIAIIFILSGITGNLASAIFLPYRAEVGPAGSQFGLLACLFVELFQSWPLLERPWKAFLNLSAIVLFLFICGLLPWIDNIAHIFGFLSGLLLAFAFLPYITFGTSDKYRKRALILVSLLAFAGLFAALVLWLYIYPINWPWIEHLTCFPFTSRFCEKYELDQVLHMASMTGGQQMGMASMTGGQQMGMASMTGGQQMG

B1: antibody 5 (antibody, V domains shown)
VH: QVTLKESGPGILQPSQTLSLTCSFSGFSLSTFGMGVGWIRQPSGKGLEWLAHIWWDDEKYYNSALKSRLTISKATSKNQAFLKIANVDTADTATYYCARISNYGSNYWYFNVWGTGTTVTVSS
VL: QVVLTQSPALMSASPGEKVTMTCSAGSSVSCMYWYQQKPGSSPRVLIYDTSNLASGVPARFTGSGSGTSYSLTISRMEAEDAASYYCQQWNSYPLTFGAGTKLELK
notes: mouse IgG, kappa light chain; also called clone #5; purified antibody 5
B2: antibody 43 (antibody, V domains shown)
VH: B1 VH with T3A, P42S, H52N, E58D, S63P, A74D, T75A, S101G, N111D
VL: QIVLTQSPAIMSASPGERVTMTCSANSRISYMYWYQQKPGSSPRLLIYDTSNLASGVPVRFSGSGSGTSYSLTISRMEAEDAATYNCQQWSSYPLTFGAGTKLELK
notes: mouse IgG, kappa light chain; also called clone #43; purified antibody 43
B3: antibody 42 (antibody, V domains shown)
VH: B1 VH with F24L, M34R, S63P, A74D, A80V, K83R, S101Q, N111D
VL: B2 VL with Q1L, R18K, S24G, N26T, Y33F, L45V, M77V, A82V, N86Y, S91N
notes: mouse IgG, kappa light chain; also called clone #42; purified antibody 42
B4: antibody 34 (antibody, V domains shown)
VH: QVTLKESGPGILQPSQTLSLTCSFSGFSLSTFSLGVGWIRQSSGKGLEWLAHIWWDDEKYYNPALKSRLTISKDTSKNQVFLKIANVDAADTATYYCARAYYSKSYYALDYWGQGTSVTVSS
VL: DIQMTQSPSSLSASLGERVSLTCRASQEISGYLSWLQQKPDGTIKRLIYAASTLDSGVPKRFSGSRSGSDYSLAISSLESEDFADYYCLQYANFPFTFGSGTKLEIK
notes: mouse IgG, kappa light chain; also called clone #34; purified antibody 34

Changes are numbered by the printed parent chain.

The target in the test is T1, hiR2-FL-R543Q-T7. In words: FACS on MEF-DKO cells.
With B1, the binding result is “no binding (tested: 3 µg/ml)”. As for B2, the entry is “no binding (tested: 3 µg/ml)”; as for B3, “no binding (tested: 3 µg/ml)”. As for B4, the entry is “no binding (tested: 3 µg/ml)”.
